Results on three substances are retold here after publication PMC5524369.

Experiment [1] concerns the target C1q (Homo sapiens) (UniProt P02745). The conditions noted are these: cited from earlier work.
Experiment [2] has as its target complement factor H (Homo sapiens) (UniProt P08603). As to the kind of experiment: SPR. The conditions noted are these: cited from earlier work.
In experiment [3] the target is Tamm-Horsfall protein (human) (UniProt P07911). As to the kind of experiment: ELISA; wells coated with 25 μg/ml THP; C3b 1 to 250 μg/ml in 20 mM Tris/20 mM NaCl/0.05% Tween 20 (pH 7.5) without BSA, overnight, 4°C; detected with goat anti-human C3b; fitted to B = (F × Cap)/(KD + F).
For experiment [4] the target is unchanged. Briefly: ELISA; wells coated with 25 μg/ml THP; CFH 10 to 250 μg/ml in 1% BSA/20 mM Tris/20 mM NaCl/0.05% Tween 20 (pH 7.5), overnight, 4°C; detected with goat anti-human CFH; fitted to B = (F × Cap)/(KD + F). In general terms: An ELISA detects its analyte on a solid surface through an enzyme-linked reagent.
Experiment [5] shares this target. Described as above. The source holds these as a separate data set.

Chain of complement factor H (P08603 19-1231): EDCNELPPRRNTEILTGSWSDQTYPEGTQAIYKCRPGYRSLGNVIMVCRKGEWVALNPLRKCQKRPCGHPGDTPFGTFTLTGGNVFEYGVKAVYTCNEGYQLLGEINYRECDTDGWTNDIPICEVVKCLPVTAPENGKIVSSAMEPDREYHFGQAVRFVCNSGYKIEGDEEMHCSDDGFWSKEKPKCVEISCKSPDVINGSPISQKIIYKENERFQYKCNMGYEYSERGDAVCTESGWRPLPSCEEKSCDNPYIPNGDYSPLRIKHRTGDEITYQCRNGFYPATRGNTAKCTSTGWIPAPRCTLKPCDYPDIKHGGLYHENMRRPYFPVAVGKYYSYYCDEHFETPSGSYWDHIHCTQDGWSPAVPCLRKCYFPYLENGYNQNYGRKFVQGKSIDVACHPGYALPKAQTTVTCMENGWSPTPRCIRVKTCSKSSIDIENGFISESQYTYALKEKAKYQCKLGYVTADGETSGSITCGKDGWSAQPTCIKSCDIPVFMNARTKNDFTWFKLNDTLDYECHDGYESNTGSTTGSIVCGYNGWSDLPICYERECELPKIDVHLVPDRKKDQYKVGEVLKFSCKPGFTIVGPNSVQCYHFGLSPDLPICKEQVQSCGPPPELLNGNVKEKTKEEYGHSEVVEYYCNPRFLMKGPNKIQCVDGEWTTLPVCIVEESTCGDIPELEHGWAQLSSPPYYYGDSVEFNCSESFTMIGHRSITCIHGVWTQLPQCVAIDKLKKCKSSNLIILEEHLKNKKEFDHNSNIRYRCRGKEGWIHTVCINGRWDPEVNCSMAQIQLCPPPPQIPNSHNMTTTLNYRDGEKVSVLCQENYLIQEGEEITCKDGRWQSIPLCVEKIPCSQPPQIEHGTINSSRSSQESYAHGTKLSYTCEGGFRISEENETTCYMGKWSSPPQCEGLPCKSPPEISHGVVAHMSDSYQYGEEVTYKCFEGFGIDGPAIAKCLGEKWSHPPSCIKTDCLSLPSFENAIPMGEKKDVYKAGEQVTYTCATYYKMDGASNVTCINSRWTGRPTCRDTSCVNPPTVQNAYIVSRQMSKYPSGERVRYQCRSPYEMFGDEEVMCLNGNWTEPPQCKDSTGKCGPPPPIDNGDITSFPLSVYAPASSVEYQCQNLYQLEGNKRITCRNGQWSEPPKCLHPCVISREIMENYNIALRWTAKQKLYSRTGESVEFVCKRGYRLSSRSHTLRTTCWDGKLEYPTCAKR
Chain of C1q (Homo sapiens) (P02745 23-245, chain 1 of 3): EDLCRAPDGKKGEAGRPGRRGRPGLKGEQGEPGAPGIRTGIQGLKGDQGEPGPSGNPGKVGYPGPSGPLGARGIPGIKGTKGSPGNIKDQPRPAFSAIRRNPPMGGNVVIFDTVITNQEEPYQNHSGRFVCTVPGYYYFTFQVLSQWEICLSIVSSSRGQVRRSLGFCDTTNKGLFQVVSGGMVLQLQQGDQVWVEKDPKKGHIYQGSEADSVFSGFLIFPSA
Chain of C1q (Homo sapiens) (P02746 28-253, chain 2 of 3, further chain): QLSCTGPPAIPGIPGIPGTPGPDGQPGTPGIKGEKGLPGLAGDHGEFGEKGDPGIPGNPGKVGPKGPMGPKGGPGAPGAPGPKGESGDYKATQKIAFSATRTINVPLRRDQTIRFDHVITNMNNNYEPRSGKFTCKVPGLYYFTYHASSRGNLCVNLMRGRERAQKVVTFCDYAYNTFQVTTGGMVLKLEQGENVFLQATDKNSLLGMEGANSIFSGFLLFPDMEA
Chain of C1q (Homo sapiens) (P02747 29-245, chain 3 of 3, further chain): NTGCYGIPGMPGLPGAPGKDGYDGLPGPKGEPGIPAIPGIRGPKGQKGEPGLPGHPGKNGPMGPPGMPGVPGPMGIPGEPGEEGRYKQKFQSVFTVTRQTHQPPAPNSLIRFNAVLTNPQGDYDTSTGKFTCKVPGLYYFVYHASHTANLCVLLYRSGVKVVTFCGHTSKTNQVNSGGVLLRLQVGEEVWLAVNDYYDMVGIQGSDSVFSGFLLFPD
Chain of complement factor H (Homo sapiens) (P08603 19-1231): as the sequence (P08603 19-1231) above

Broadly, the Kd is a measure of binding affinity in units of concentration. For THP (uromodulin) (from UniProt P07911), the Kd was 1 nM in experiment [1] and 4000 nM in experiment [2].

Consider “complement 3b (from UniProt P01024 749-1663; P01024 749-1663) (natural protein)”, for which the Kd in experiment [3] amounted to 50 nM.

With “complement factor H (from UniProt P08603 19-1231) (natural protein)”, the Kd amounted to 1000 nM in experiment [4] and 1200 nM in experiment [5].
